Data from US20130236458A1 (AbbVie / Abbott, published 2013).

T1: Recombinant Human IL-17 (human, UniProt Q16552 20-155, limits assumed)
T1 construct: bought reagent; also called IL-17A
T1 sequence (looked up): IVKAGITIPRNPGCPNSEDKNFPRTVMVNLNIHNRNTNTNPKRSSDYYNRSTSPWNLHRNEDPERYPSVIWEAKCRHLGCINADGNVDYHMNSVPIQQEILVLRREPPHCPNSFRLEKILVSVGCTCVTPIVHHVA


Legend:
Recombinant Human IL-13 [1] = target: T2, Recombinant Human IL-13 (human, UniProt P35225 35-146, limits assumed); experiment: cell-based or functional assay
Recombinant Human IL-17 [2] = target: T1, Recombinant Human IL-17; experiment: SPR (Biacore)
Experimental: (§1) The BIACORE assay (Biacore, Inc, Piscataway, N.J.) determined the affinity of antibodies or DVD-Ig with kinetic measurements of on-rate and off-rate constants. Binding of antibodies or DVD-Ig proteins to a target antigen (for example, a purified recombinant target antigen) was determined by surface plasmon resonance-based measurements with a Biacore®1000 or 3000 instrument (Biacore® AB, Uppsala, Sweden) using running HBS-EP (10 mM HEPES [pH 7.4], 150 mM NaCl, 3 mM EDTA, and 0.005% surfactant P20) at 25° C. All chemicals were obtained from Biacore® AB (Uppsala, Sweden) or otherwise from a different source as described in the text. For example, approximately 5000 RU of goat anti-mouse IgG, (Fcγ), fragment specific polyclonal antibody (Pierce Biotechnology Inc, Rockford, Ill.) diluted in 10 mM sodium acetate (pH 4.5) was directly immobilized across a CM5 research grade biosensor chip using a standard amine coupling kit according to manufacturer's instructions and procedures at 25 μg/ml. Unreacted moieties on the biosensor surface were blocked with ethanolamine. Modified carboxymethyl dextran surface in flowcell 2 and 4 was used as a reaction surface. Unmodified carboxymethyl dextran without goat anti-mouse IgG in flow cell 1 and 3 was used as the reference surface. For kinetic analysis, rate equations derived from the 1:1 Langmuir binding model were fitted simultaneously to association and dissociation phases of all eight injections (using global fit analysis) with the use of Biaevaluation 4.0.1 software. Purified antibodies or DVD-Ig proteins were diluted in HEPES-buffered saline for capture across goat anti-mouse IgG specific reaction surfaces. Antibodies or DVD-Ig proteins to be captured as a ligand (25 μg/ml) were injected over reaction matrices at a flow rate of 5 μl/minute. The association and dissociation rate constants, kₒₙ (M⁻¹s⁻¹) and koff (s⁻¹) were determined under a continuous flow rate of 25 μl/minute. Rate constants were derived by making kinetic binding measurements at different antigen concentrations ranging from 10-200 nM. The equilibrium dissociation constant (M) of the reaction between antibodies or DVD-Ig proteins and the target antigen was then calculated from the kinetic rate constants by the following formula: KD=koff/kₒₙ. Binding was recorded as a function of time and kinetic rate constants were calculated.

Recombinant Human IL-13 [3] = target: T2, Recombinant Human IL-13; experiment: SPR (Biacore)
Experimental: as §1

Recombinant Human IL-17 [4] = target: T1, Recombinant Human IL-17; experiment: cell-based or functional assay

T2 sequence (P35225 35-146 limits assumed): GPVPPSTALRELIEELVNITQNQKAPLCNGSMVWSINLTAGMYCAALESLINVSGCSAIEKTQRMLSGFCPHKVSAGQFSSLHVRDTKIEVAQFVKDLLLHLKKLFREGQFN

Row | Binder | N-Terminal VD IL13 Neutralization Assay IC50 (Recombinant Human IL-13 [1]) [nM] | Kd (Recombinant Human IL-17 [2]) [nM] | koff (Recombinant Human IL-17 [2]) [s⁻¹] | kon (Recombinant Human IL-17 [2]) [M⁻¹ s⁻¹] | Kd (Recombinant Human IL-13 [3]) [nM] | koff (Recombinant Human IL-13 [3]) [s⁻¹] | kon (Recombinant Human IL-13 [3]) [M⁻¹ s⁻¹] | C-Terminal VD IL17 Neutralization Assay IC50 (Recombinant Human IL-17 [4]) [nM] | C-Terminal VD IL13 Neutralization Assay IC50 (Recombinant Human IL-13 [1]) [nM] | N-Terminal VD IL17 Neutralization Assay IC50 (Recombinant Human IL-17 [4]) [nM]
1 | DVD2158 (bispecific antibody, DVD-Ig; also called DVD2158H; DVD2158L) VH: EVTLRESGPGLVKPTQTLTLTCTLYGFSLSTSDMGVDWIRQPPGKGLEWLAHIWWDDVKRYNPALKSRLTISKDTSKNQVVLKLTSVDPVDTATYYCARTVSSGYIYYAMDYWGQGTLVTVSSASTKGPSVFPLAPEVQLVQSGAEVKKPGSSVKVSCKASGGSFGGYGIGWVRQAPGQGLEWMGGITPFFGFADYAQKFQGRVTITADESTTTAYMELSGLTSDDTAVYYCARDPNEFWNGYYSTHDFDSWGQGTTVTVSS VL: DIQMTQSPSSLSASVGDRVTISCRASQDIRNYLNWYQQKPGKAPKLLIFYTSKLHSGVPSRFSGSGSGTDYTLTISSLQPEDIATYYCQQGLTPPLTFGGGTKVEIKRTVAAPEIVLTQSPDFQSVTPKEKVTITCRASQDIGSELHWYQQKPDQPPKLLIKYASHSTSGVPSRFSGSGSGTDFTLTINGLEAEDAGTYYCHQTDSLPYTFGPGTKVDIKR | 0.131 | < 0.05 | < 1e-06 | 20000 | 0.086 | 0.00014 | 1.6e+06 | 0.0998 | – | –
2 | DVD2164 (bispecific antibody, DVD-Ig; also called DVD2164H; DVD2164L) VH: EVTLRESGPGLVKPTQTLTLTCTLYGFSLSTSDMGVDWIRQPPGKGLEWLAHIWWDDVKRYNPALKSRLTISKDTSKNQVVLKLTSVDPVDTATYYCARTVSSGYIYYAMDYWGQGTLVTVSSASTKGPSVFPLAPEVQLVQSGAEVKKPGESVKISCKASGGSFRSYGISWVRQAPGQGLEWMGGITHFFGITDYAQKFQGRVTITADESTTTAYMELSGLTSDDTAVYYCAREPNDFWNGYYDTHDFDSWGQGTTVTVSS VL: DIQMTQSPSSLSASVGDRVTISCRASQDIRNYLNWYQQKPGKAPKLLIFYTSKLHSGVPSRFSGSGSGTDYTLTISSLQPEDIATYYCQQGLTPPLTFGGGTKVEIKRTVAAPEIVLTQSPDFQSVTPKEKVTITCRASQNIGSELHWYQQKPDQSPKLLIKYASHSISGVPSRFSGSGSGTDFTLTINGLEAEDAATYYCHQSDTLPHTFGQGTKVDIKR | 0.146 | 1.7 | 3.1e-05 | 18000 | 0.11 | 0.00017 | 1.5e+06 | 0.135 | – | –
3 | DVD2157 (bispecific antibody, DVD-Ig; also called DVD2157H; DVD2157L) VH: EVQLVQSGAEVKKPGSSVKVSCKASGGSFGGYGIGWVRQAPGQGLEWMGGITPFFGFADYAQKFQGRVTITADESTTTAYMELSGLTSDDTAVYYCARDPNEFWNGYYSTHDFDSWGQGTTVTVSSASTKGPEVTLRESGPGLVKPTQTLTLTCTLYGFSLSTSDMGVDWIRQPPGKGLEWLAHIWWDDVKRYNPALKSRLTISKDTSKNQVVLKLTSVDPVDTATYYCARTVSSGYIYYAMDYWGQGTLVTVSS VL: EIVLTQSPDFQSVTPKEKVTITCRASQDIGSELHWYQQKPDQPPKLLIKYASHSTSGVPSRFSGSGSGTDFTLTINGLEAEDAGTYYCHQTDSLPYTFGPGTKVDIKRTVAAPSVFIFPPDIQMTQSPSSLSASVGDRVTISCRASQDIRNYLNWYQQKPGKAPKLLIFYTSKLHSGVPSRFSGSGSGTDYTLTISSLQPEDIATYYCQQGLTPPLTFGGGTKVEIKR | – | 0.018 | 2.6e-05 | 1.5e+06 | 0.21 | 6.9e-05 | 330000 | – | 0.244 | 0.0066
4 | DVD2161 (bispecific antibody, DVD-Ig; also called DVD2161H; DVD2161L) VH: EVQLVQSGAEVKKPGESVKISCKASGGSFRSYGISWVRQAPGQGLEWMGGITHFFGITDYAQKFQGRVTITADESTTTAYMELSGLTSDDTAVYYCAREPNDFWNGYYDTHDFDSWGQGTTVTVSSASTKGPEVTLRESGPGLVKPTQTLTLTCTLYGFSLSTSDMGVDWIRQPPGKGLEWLAHIWWDDVKRYNPALKSRLTISKDTSKNQVVLKLTSVDPVDTATYYCARTVSSGYIYYAMDYWGQGTLVTVSS VL: EIVLTQSPDFQSVTPKEKVTITCRASQNIGSELHWYQQKPDQSPKLLIKYASHSISGVPSRFSGSGSGTDFTLTINGLEAEDAATYYCHQSDTLPHTFGQGTKVDIKRTVAAPDIQMTQSPSSLSASVGDRVTISCRASQDIRNYLNWYQQKPGKAPKLLIFYTSKLHSGVPSRFSGSGSGTDYTLTISSLQPEDIATYYCQQGLTPPLTFGGGTKVEIKR | – | 0.027 | 4.5e-05 | 1.6e+06 | 0.38 | 4.1e-05 | 110000 | – | 0.812 | 0.0144

Further binders by falling Kd (Recombinant Human IL-17 [2]), results first:

Row | N-Terminal VD IL13 Neutralization Assay IC50 (Recombinant Human IL-13 [1]) [nM] | Kd (Recombinant Human IL-17 [2]) [nM] | koff (Recombinant Human IL-17 [2]) [s⁻¹] | kon (Recombinant Human IL-17 [2]) [M⁻¹ s⁻¹] | Kd (Recombinant Human IL-13 [3]) [nM] | koff (Recombinant Human IL-13 [3]) [s⁻¹] | kon (Recombinant Human IL-13 [3]) [M⁻¹ s⁻¹] | C-Terminal VD IL17 Neutralization Assay IC50 (Recombinant Human IL-17 [4]) [nM] | C-Terminal VD IL13 Neutralization Assay IC50 (Recombinant Human IL-13 [1]) [nM] | N-Terminal VD IL17 Neutralization Assay IC50 (Recombinant Human IL-17 [4]) [nM] | Binder
5 | – | 0.014 | 3.2e-05 | 2.3e+06 | 0.22 | 5.7e-05 | 260000 | – | 0.355 | 0.0133 | DVD2165 (bispecific antibody, DVD-Ig; also called DVD2165H; DVD2165L) VH: EVQLVQSGAEVKKPGESVKISCKASGGSFRSYGISWVRQAPGQGLEWMGGITHFFGITDYAQKFQGRVTITADESTTTAYMELSGLTSDDTAVYYCAREPNDFWNGYYDTHDFDSWGQGTTVTVSSASTKGPSVFPLAPEVTLRESGPGLVKPTQTLTLTCTLYGFSLSTSDMGVDWIRQPPGKGLEWLAHIWWDDVKRYNPALKSRLTISKDTSKNQVVLKLTSVDPVDTATYYCARTVSSGYIYYAMDYWGQGTLVTVSS VL: EIVLTQSPDFQSVTPKEKVTITCRASQNIGSELHWYQQKPDQSPKLLIKYASHSISGVPSRFSGSGSGTDFTLTINGLEAEDAATYYCHQSDTLPHTFGQGTKVDIKRTVAAPDIQMTQSPSSLSASVGDRVTISCRASQDIRNYLNWYQQKPGKAPKLLIFYTSKLHSGVPSRFSGSGSGTDYTLTISSLQPEDIATYYCQQGLTPPLTFGGGTKVEIKR
6 | – | 0.0049 | 1.2e-05 | 2.5e+06 | 0.2 | 5.3e-05 | 260000 | – | 0.876 | 0.0081 | DVD2159 (bispecific antibody, DVD-Ig; also called DVD2159H; DVD2159L) VH: EVQLVQSGAEVKKPGSSVKVSCKASGGSFGGYGIGWVRQAPGQGLEWMGGITPFFGFADYAQKFQGRVTITADESTTTAYMELSGLTSDDTAVYYCARDPNEFWNGYYSTHDFDSWGQGTTVTVSSASTKGPSVFPLAPEVTLRESGPGLVKPTQTLTLTCTLYGFSLSTSDMGVDWIRQPPGKGLEWLAHIWWDDVKRYNPALKSRLTISKDTSKNQVVLKLTSVDPVDTATYYCARTVSSGYIYYAMDYWGQGTLVTVSS VL: EIVLTQSPDFQSVTPKEKVTITCRASQDIGSELHWYQQKPDQPPKLLIKYASHSTSGVPSRFSGSGSGTDFTLTINGLEAEDAGTYYCHQTDSLPYTFGPGTKVDIKRTVAAPDIQMTQSPSSLSASVGDRVTISCRASQDIRNYLNWYQQKPGKAPKLLIFYTSKLHSGVPSRFSGSGSGTDYTLTISSLQPEDIATYYCQQGLTPPLTFGGGTKVEIKR
7 | – | 0.0026 | 6.9e-06 | 2.7e+06 | 0.16 | 3.8e-05 | 230000 | – | 1.18 | 0.0078 | DVD2155 (bispecific antibody, DVD-Ig; also called DVD2155H; DVD2155L) VH: EVQLVQSGAEVKKPGSSVKVSCKASGGSFGGYGIGWVRQAPGQGLEWMGGITPFFGFADYAQKFQGRVTITADESTTTAYMELSGLTSDDTAVYYCARDPNEFWNGYYSTHDFDSWGQGTTVTVSSASTKGPEVTLRESGPGLVKPTQTLTLTCTLYGFSLSTSDMGVDWIRQPPGKGLEWLAHIWWDDVKRYNPALKSRLTISKDTSKNQVVLKLTSVDPVDTATYYCARTVSSGYIYYAMDYWGQGTLVTVSS VL: EIVLTQSPDFQSVTPKEKVTITCRASQDIGSELHWYQQKPDQPPKLLIKYASHSTSGVPSRFSGSGSGTDFTLTINGLEAEDAGTYYCHQTDSLPYTFGPGTKVDIKRTVAAPDIQMTQSPSSLSASVGDRVTISCRASQDIRNYLNWYQQKPGKAPKLLIFYTSKLHSGVPSRFSGSGSGTDYTLTISSLQPEDIATYYCQQGLTPPLTFGGGTKVEIKR
